pKd: −log10 of the molar value.
Target: Aβ42 fibrils (fibrillar Aβ(M1-42))
Test: SPR

Substance: Brichos domain from proSP-C (lung surfactant C precursor protein) (domain or fragment)
- pKd: 7.40

Reference: PMC4595974
